Data on 83 variants can be found in the RNAGym collection of RNA variant scans (doi:10.1021/acssynbio.7b00057).

Sequences and labels used below:
B1: Pistol ribozyme (parent)
chain: GGGUCGUUGUUCCAUAAUCGCGUGGAUAUGGCACGCAAGUUUCUACCGGGCACCGUAAAUGUCCGACUGGAGCCGUUCGGGCGGCUAUAAACAGACCUCAGGCCCGAAGCGUGGCGGCACCUGCCGCCGGUGGUAAAAAAGAUCGGAAGAGCACACGUCU

In the series the parent is B1. Description: aptazyme ON/OFF ratio, guanine; higher = stronger switching; co-transcriptional cleavage with and without guanine.
Turning to U7G G9C U11G C12A, the “aptazyme ON/OFF ratio” value was determined as 1.41.

As for U7G G9C U11G C12U, the “aptazyme ON/OFF ratio” value was determined as 1.43.

Turning to U7G G9C U11G C12G, the “aptazyme ON/OFF ratio” value was found to be 1.31.

For the variant U7G G9U U10C U11G C12A C13A, the “aptazyme ON/OFF ratio” value is 1.1.

Turning to U7G G9U U10C U11G C12A C13U, the “aptazyme ON/OFF ratio” value is 1.16.

With U7G G9U U10C U11G C12A C13G, the “aptazyme ON/OFF ratio” value came to 1.13.

U7G G9U U11C C12U: the “aptazyme ON/OFF ratio” value amounted to 2.32.

Take U7G G9U U11C C12G: the “aptazyme ON/OFF ratio” value turned out to be 1.74.

In the case of U7G G9U U11C C12A, the “aptazyme ON/OFF ratio” value amounted to 1.61.

Regarding U7G G9U U10C U11A C12U, the “aptazyme ON/OFF ratio” value was determined as 1.8.

U7G G9U U10C U11A C12A: the “aptazyme ON/OFF ratio” value came to 1.58.

As to U7G G9U U10C U11A C12G, the “aptazyme ON/OFF ratio” value amounted to 1.57.

Consider U7G G9U U10A C12G C13U, for which the “aptazyme ON/OFF ratio” value was 1.4.

Take U7G G9U U10A C12G C13G: the “aptazyme ON/OFF ratio” value is 1.24.

For the variant U7G G9U U10A C12G C13A, the “aptazyme ON/OFF ratio” value is 1.09.

As to U7G G9U U10C U11A C12G C13A, the “aptazyme ON/OFF ratio” value came to 1.13.

Regarding U7G G9U U10C U11A C12G C13U, the “aptazyme ON/OFF ratio” value came to 1.26.

On to U7G G9U U10C U11A C12G C13G, for which the “aptazyme ON/OFF ratio” value is 1.13.

On to U7G G9C U11G C12A C13A, for which the “aptazyme ON/OFF ratio” value amounted to 1.21.

With U7G G9C U11G C12A C13U, the “aptazyme ON/OFF ratio” value is 1.47.

Take U7G G9C U11G C12A C13G: the “aptazyme ON/OFF ratio” value came out at 1.31.

On to U7G G9U C12A C13U, for which the “aptazyme ON/OFF ratio” value was determined as 1.14.

In the case of U7G G9U C12A C13A, the “aptazyme ON/OFF ratio” value came to 1.46.

In the case of U7G G9U C12A C13G, the “aptazyme ON/OFF ratio” value came to 1.33.

In the case of U7G G9U U11G C13G, the “aptazyme ON/OFF ratio” value came out at 1.3.

In the case of U7G G9U U11G C13U, the “aptazyme ON/OFF ratio” value is 1.26.

Turning to U7G G9U U11G C13A, the “aptazyme ON/OFF ratio” value was found to be 1.3.

Turning to U7G U8A G9A, the “aptazyme ON/OFF ratio” value is 2.45.

Take U7G G9U U10A U11G C12G C13U: the “aptazyme ON/OFF ratio” value was found to be 1.25.

For U7G G9U U10A U11G C12G C13A, the “aptazyme ON/OFF ratio” value was found to be 1.04.

Turning to U7G G9U U10A U11G C12G C13G, the “aptazyme ON/OFF ratio” value is 1.14.

Turning to U7G U8A G9A U10A U11A C12A C13U, the “aptazyme ON/OFF ratio” value was determined as 1.12.

Turning to U7G U8A G9A U10A U11A C12A C13A, the “aptazyme ON/OFF ratio” value worked out at 1.09.

Take U7G U8A G9A U10A U11A C12A C13G: the “aptazyme ON/OFF ratio” value worked out at 1.04.

For U7G G9U U10A U11A C13A, the “aptazyme ON/OFF ratio” value stood at 1.28.

As to U7G G9U U10A U11A C13U, the “aptazyme ON/OFF ratio” value stood at 1.39.

With U7G G9U U10A U11A C13G, the “aptazyme ON/OFF ratio” value is 1.18.

As to U7G G9U U10G U11A C12G C13A, the “aptazyme ON/OFF ratio” value is 1.19.

Regarding U7G G9U U10G U11A C12G C13U, the “aptazyme ON/OFF ratio” value amounted to 1.18.

With U7G G9U U10G U11A C12G C13G, the “aptazyme ON/OFF ratio” value stood at 1.17.

On to U7G G9U U10A C12U C13A, for which the “aptazyme ON/OFF ratio” value was found to be 1.06.

In the case of U7G G9U U10A C12U C13U, the “aptazyme ON/OFF ratio” value worked out at 1.15.

In the case of U7G G9U U10A C12U C13G, the “aptazyme ON/OFF ratio” value came to 1.14.

With U7G G9U U10A C12A, the “aptazyme ON/OFF ratio” value came out at 1.65.

On to U7G G9U U10A C12G, for which the “aptazyme ON/OFF ratio” value was 1.59.

As for U7G G9U U10A C12U, the “aptazyme ON/OFF ratio” value was determined as 1.54.

Take U7G G9U U10A U11A C12A C13A: the “aptazyme ON/OFF ratio” value was 1.17.

For U7G G9U U10A U11A C12A C13G, the “aptazyme ON/OFF ratio” value is 1.26.

For U7G G9U U10A U11A C12A C13U, the “aptazyme ON/OFF ratio” value stood at 1.38.

Consider U7G U8A G9A U10A C12A C13U, for which the “aptazyme ON/OFF ratio” value was determined as 1.14.

Turning to U7G U8A G9A U10A C12A C13A, the “aptazyme ON/OFF ratio” value is 1.2.

For U7G U8A G9A U10A C12A C13G, the “aptazyme ON/OFF ratio” value amounted to 1.12.

For U7G U8A G9A U10A C12U C13U, the “aptazyme ON/OFF ratio” value stood at 1.03.

Take U7G U8A G9A U10A C12U C13A: the “aptazyme ON/OFF ratio” value came out at 1.13.

Regarding U7G U8A G9A U10A C12U C13G, the “aptazyme ON/OFF ratio” value was determined as 1.07.

U7G G9U U10C U11G C13U: the “aptazyme ON/OFF ratio” value stood at 1.38.

Regarding U7G G9U U10C U11G C13A, the “aptazyme ON/OFF ratio” value was 1.32.

For the variant U7G G9U U10C U11G C13G, the “aptazyme ON/OFF ratio” value was determined as 1.22.

With U7G G9U C12G, the “aptazyme ON/OFF ratio” value was 1.42.

Turning to U7G G9U C12U, the “aptazyme ON/OFF ratio” value came to 2.07.

For the variant U7G G9U C12A, the “aptazyme ON/OFF ratio” value is 1.97.

For U7G U8A G9A U10A, the “aptazyme ON/OFF ratio” value is 1.77.

On to U7G G9U U10C U11A C12U C13A, for which the “aptazyme ON/OFF ratio” value is 1.33.

For U7G G9U U10C U11A C12U C13U, the “aptazyme ON/OFF ratio” value is 1.33.

In the case of U7G G9U U10C U11A C12U C13G, the “aptazyme ON/OFF ratio” value stood at 1.23.

Turning to U7G U8A C13G, the “aptazyme ON/OFF ratio” value was 1.41.

On to U7G U8A C13U, for which the “aptazyme ON/OFF ratio” value was 0.972.

Consider U7G U8A C13A, for which the “aptazyme ON/OFF ratio” value came out at 1.35.

For U7G G9U U10A, the “aptazyme ON/OFF ratio” value was determined as 3.84.

Regarding U7G G9U U10G, the “aptazyme ON/OFF ratio” value came out at 3.04.

Take U7G G9U U10C: the “aptazyme ON/OFF ratio” value is 3.94.

For U7G G9U U10A U11A C12G C13U, the “aptazyme ON/OFF ratio” value stood at 1.42.

In the case of U7G G9U U10A U11A C12G C13G, the “aptazyme ON/OFF ratio” value came to 1.11.

Turning to U7G G9U U10A U11A C12G C13A, the “aptazyme ON/OFF ratio” value was 1.13.

As to U7G G9U U10G U11A C12A C13U, the “aptazyme ON/OFF ratio” value was 1.16.

As for U7G G9U U10G U11A C12A C13G, the “aptazyme ON/OFF ratio” value was 1.06.

U7G G9U U10G U11A C12A C13A: the “aptazyme ON/OFF ratio” value worked out at 1.16.

For the variant U7G G9U U10C U11G C12U C13A, the “aptazyme ON/OFF ratio” value was determined as 1.22.

U7G G9U U10C U11G C12U C13U: the “aptazyme ON/OFF ratio” value was 1.22.

In the case of U7G G9U U10C U11G C12U C13G, the “aptazyme ON/OFF ratio” value is 1.23.

Take U7G G9U U10G U11A C12U: the “aptazyme ON/OFF ratio” value is 1.27.

As for U7G G9U U10G U11A C12A, the “aptazyme ON/OFF ratio” value came to 1.15.

U7G G9U U10G U11A C12G: the “aptazyme ON/OFF ratio” value is 1.26.
